Source: paper PMC3260246

Columns and labels:
Assay in all cases: membrane filtration equilibrium binding (Scatchard plot); 12.5 µM wild-type or mutant small heat shock protein incubated 1 hr at 60°C with 2–18 µM γ-crystallin in 50 mM phosphate buffer, 100 mM NaCl, pH 7.2; unbound substrate separated through a 100-kDa cut off Microcon filter; n per subunit of chaperone
[1] = target: wild-type human αB-crystallin (human) (UniProt P02511)
[2] = target: wild-type human Hsp27 (human) (UniProt P04792)
[3] = target: αB-crystallin R12A mutant (human) (UniProt P02511)
[4] = target: Hsp27 R12A mutant (human) (UniProt P04792)
[5] = target: wild-type human αA-crystallin (human) (UniProt P02489)
Chain of wild-type human αA-crystallin (human) (P02489 whole entry): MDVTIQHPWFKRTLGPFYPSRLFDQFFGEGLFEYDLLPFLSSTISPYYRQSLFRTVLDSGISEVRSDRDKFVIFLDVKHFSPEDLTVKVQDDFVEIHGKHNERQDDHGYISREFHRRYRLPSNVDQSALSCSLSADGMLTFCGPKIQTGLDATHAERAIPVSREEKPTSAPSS

Chain of bovine γ-crystallin (P02526 whole entry): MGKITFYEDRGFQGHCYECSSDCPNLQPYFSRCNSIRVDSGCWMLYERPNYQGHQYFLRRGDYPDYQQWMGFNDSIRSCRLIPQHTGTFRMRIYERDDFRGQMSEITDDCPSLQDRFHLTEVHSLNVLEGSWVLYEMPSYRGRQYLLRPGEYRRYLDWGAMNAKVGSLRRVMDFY
Chain of wild-type human Hsp27 (human) (P04792 whole entry): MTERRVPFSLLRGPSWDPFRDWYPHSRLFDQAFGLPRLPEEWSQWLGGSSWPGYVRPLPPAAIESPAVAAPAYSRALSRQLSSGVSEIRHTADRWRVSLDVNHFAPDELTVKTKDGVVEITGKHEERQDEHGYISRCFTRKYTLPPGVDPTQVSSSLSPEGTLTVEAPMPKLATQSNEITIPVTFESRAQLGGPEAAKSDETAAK
Chain of wild-type human αB-crystallin (human) (P02511 whole entry): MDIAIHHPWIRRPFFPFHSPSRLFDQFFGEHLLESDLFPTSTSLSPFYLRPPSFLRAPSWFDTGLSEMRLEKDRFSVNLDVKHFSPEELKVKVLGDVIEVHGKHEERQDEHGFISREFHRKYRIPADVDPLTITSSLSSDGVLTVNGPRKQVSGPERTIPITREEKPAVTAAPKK
Chain of Hsp27 R12A mutant (human) (P04792 whole entry R12A): as the sequence (P04792 whole entry) above, with R12A counted along it
Chain of αB-crystallin R12A mutant (human) (P02511 whole entry R12A): as the sequence (P02511 whole entry) above, with R12A counted along it

Kd [1]: 2.84 µM
stoichiometry N [1]: 2.34
Kd [2]: 5.91 µM
stoichiometry N [2]: 2.9
Kd [3]: 3.24 µM
stoichiometry N [3]: 1.68
Kd [4]: 5.79 µM
stoichiometry N [4]: 2.87
stoichiometry N [5]: 3.61
Substance: bovine γ-crystallin (from UniProt P02526 1-175) (natural protein)
